This note sets out measurements from US9176064B2, “Bisubstrate fluorescent probes for protein kinase CK2” (University of Tartu, priority 2012, dated 2015).

SMILES strings stand for the structures. Where a SMILES comes first, the peptide text is derived from it. [ ]: non-standard residue; d: D form. The star is where a group is joined. X1 = O=C(CCCCCCCn1cnc2c(Br)c(Br)c(Br)c(Br)c21)*

The term remaining activity denotes the signal under treatment as a percentage of the control signal.

Among the targets are CLK2 (Homo sapiens, UniProt P49760); MAPKAP-K3 (Homo sapiens, UniProt Q16644); SIK3 (Homo sapiens, UniProt Q9Y2K2); PAK6 (Homo sapiens, UniProt Q9NQU5); ROCK 2 (Homo sapiens, UniProt O75116); CHK2 (Homo sapiens, UniProt O96017); CAMK1 (Homo sapiens, UniProt Q14012); PKCγ (Homo sapiens, UniProt P05129); RIPK2 (Homo sapiens, UniProt O43353); p38b MAPK (Homo sapiens, UniProt Q15759).

Holding throughout (experiment): Kinase panel residual activity
Common to all, as to assay type: biochemical
Conditions in all cases: compound at 1 micromolar

A further data set concerns the target T1, EIF2AK3 (Homo sapiens, UniProt Q9NZJ5).
T1 sequence (Q9NZJ5 30-1116): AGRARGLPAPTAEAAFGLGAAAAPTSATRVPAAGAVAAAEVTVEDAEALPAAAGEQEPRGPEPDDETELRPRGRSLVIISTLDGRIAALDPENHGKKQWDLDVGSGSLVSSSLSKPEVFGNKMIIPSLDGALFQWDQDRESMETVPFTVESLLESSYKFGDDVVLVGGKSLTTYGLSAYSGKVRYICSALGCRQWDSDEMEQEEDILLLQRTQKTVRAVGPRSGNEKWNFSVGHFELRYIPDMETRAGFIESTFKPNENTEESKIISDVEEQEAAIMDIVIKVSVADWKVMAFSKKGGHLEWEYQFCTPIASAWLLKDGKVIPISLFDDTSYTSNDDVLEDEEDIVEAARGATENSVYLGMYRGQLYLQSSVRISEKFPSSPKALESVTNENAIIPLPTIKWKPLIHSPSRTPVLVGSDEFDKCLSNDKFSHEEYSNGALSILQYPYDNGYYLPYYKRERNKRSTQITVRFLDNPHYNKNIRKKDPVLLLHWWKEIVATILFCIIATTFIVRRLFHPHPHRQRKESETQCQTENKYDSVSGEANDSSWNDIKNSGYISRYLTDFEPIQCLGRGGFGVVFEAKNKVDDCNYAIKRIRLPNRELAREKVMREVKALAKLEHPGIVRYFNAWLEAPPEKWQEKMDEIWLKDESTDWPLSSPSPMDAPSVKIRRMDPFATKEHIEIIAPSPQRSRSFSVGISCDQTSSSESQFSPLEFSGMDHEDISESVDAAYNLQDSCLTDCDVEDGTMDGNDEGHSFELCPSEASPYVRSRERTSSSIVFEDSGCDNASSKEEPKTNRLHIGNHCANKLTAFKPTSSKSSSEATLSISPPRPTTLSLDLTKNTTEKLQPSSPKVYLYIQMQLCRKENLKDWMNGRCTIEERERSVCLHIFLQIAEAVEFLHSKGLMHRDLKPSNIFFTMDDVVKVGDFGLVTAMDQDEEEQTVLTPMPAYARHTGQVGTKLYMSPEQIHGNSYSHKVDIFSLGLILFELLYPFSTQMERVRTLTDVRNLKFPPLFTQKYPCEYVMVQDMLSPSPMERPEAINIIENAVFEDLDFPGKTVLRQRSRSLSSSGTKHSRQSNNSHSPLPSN

The next data set concerns the target T2, PDK1 (Homo sapiens, UniProt O15530).
T2 sequence (O15530 1-556): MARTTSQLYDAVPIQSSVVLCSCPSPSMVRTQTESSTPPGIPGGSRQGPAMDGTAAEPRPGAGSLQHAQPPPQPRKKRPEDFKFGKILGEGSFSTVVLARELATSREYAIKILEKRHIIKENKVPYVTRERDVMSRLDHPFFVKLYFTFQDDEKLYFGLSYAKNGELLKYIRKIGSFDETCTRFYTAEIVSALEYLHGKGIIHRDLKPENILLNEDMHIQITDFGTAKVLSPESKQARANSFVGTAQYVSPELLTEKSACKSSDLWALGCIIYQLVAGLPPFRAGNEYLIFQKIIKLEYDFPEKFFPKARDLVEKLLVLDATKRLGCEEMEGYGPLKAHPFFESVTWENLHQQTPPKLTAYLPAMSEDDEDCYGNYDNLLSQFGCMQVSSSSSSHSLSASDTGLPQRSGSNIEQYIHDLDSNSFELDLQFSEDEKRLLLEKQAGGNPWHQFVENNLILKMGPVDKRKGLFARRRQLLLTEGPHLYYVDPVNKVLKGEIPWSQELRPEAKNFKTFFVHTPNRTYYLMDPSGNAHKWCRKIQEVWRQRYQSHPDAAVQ

The target of another data set is T3, NEK2a (Homo sapiens, UniProt P51955).
T3 sequence (P51955 1-445): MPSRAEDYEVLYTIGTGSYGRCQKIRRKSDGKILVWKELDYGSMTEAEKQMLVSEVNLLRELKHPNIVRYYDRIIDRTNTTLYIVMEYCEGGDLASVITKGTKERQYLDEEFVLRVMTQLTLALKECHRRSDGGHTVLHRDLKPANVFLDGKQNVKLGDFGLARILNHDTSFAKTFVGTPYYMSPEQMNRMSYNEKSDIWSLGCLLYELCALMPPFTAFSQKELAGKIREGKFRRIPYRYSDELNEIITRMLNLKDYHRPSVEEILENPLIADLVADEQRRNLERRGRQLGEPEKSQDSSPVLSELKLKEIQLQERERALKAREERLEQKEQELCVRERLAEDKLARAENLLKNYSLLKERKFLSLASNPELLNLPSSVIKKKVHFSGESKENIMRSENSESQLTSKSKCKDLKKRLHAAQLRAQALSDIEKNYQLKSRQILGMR

Chain of RIPK2 (O43353 whole entry, species assumed): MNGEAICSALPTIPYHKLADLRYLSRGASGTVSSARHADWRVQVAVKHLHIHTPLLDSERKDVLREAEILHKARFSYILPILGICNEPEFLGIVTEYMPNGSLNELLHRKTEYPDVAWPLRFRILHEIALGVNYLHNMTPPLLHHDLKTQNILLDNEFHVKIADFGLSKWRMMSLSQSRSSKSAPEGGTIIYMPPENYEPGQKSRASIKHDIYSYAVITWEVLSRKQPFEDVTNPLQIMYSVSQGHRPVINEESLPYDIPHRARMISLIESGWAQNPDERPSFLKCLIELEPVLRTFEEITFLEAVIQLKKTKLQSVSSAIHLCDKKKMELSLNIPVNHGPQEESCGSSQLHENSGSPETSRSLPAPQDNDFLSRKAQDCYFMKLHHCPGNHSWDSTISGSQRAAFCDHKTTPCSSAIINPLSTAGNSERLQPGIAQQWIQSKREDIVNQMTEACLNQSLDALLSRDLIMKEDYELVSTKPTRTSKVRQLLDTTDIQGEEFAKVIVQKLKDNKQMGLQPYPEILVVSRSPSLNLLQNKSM
Chain of SIK3 (Q9Y2K2 whole entry, species assumed): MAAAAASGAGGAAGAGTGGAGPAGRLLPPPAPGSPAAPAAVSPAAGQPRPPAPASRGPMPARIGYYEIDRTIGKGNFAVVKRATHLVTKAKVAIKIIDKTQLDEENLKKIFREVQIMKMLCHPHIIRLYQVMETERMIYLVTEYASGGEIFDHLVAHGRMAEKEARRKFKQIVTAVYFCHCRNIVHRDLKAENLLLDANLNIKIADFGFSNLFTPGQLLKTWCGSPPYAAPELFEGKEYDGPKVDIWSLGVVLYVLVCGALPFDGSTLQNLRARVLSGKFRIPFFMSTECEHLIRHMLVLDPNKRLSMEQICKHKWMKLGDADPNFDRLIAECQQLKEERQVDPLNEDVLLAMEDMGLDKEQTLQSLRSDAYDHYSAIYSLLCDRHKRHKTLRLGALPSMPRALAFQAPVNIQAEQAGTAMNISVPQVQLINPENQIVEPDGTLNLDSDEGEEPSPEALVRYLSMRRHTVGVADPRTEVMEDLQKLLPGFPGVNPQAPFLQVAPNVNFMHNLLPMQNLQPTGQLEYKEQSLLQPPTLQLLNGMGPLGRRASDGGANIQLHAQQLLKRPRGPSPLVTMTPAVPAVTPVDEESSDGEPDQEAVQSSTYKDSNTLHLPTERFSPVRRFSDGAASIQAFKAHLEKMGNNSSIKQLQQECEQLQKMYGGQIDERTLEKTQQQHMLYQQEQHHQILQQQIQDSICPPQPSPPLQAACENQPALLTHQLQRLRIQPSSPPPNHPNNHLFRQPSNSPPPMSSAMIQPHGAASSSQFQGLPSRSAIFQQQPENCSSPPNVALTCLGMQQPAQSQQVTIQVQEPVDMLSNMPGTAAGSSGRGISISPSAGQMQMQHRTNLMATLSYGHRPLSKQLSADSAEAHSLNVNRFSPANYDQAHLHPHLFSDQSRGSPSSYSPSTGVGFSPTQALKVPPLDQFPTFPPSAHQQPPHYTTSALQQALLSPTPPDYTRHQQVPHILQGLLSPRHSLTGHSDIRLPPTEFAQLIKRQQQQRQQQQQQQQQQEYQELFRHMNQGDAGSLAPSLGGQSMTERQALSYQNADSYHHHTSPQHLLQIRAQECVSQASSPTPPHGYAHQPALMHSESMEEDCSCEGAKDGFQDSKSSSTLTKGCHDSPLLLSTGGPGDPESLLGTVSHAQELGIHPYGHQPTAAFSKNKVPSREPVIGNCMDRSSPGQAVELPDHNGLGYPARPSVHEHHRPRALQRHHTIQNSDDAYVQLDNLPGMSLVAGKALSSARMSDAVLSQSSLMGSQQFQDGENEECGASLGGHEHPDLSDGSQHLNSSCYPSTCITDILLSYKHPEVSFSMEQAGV
Chain of PAK6 (Q9NQU5 whole entry, species assumed): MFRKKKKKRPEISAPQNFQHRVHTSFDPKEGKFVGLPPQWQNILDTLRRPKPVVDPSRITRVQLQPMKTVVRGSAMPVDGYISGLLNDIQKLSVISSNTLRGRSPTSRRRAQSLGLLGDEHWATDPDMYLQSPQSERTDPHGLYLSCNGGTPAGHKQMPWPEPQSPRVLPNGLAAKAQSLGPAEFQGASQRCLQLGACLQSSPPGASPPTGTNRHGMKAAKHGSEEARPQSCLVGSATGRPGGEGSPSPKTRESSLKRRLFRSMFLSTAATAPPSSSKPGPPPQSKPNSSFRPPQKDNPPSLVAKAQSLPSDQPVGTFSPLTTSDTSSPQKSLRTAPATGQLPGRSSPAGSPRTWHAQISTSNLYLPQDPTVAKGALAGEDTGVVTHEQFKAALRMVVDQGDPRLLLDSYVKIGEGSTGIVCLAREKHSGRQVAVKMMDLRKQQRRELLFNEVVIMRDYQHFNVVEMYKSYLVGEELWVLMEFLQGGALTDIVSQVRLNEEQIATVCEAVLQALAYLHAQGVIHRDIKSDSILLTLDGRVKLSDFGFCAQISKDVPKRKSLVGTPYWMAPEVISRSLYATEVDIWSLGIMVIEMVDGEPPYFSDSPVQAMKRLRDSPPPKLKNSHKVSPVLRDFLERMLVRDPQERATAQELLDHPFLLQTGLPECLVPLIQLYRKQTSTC
Chain of MAPKAP-K3 (Q16644 whole entry, species assumed): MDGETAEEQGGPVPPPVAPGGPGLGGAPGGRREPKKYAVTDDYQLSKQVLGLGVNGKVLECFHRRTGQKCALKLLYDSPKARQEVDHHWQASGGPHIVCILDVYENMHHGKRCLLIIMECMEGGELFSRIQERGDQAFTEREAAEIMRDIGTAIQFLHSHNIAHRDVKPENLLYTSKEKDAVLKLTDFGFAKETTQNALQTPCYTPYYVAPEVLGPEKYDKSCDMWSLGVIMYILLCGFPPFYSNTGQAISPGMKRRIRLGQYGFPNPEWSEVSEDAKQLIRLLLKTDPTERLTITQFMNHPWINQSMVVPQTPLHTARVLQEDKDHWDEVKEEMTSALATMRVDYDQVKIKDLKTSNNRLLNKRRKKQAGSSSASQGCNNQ
Chain of p38b MAPK (Q15759 whole entry): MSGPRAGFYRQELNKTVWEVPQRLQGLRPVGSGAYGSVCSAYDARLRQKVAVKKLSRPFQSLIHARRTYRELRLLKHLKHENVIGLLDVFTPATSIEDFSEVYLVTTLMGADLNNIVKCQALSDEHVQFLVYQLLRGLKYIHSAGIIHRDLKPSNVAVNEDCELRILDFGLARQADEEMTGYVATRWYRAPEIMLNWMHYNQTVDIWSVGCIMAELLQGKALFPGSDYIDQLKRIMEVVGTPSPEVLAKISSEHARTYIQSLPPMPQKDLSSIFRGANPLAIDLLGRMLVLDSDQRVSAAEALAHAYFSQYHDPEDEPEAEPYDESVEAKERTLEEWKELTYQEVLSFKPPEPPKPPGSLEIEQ
Chain of CAMK1 (Q14012 whole entry): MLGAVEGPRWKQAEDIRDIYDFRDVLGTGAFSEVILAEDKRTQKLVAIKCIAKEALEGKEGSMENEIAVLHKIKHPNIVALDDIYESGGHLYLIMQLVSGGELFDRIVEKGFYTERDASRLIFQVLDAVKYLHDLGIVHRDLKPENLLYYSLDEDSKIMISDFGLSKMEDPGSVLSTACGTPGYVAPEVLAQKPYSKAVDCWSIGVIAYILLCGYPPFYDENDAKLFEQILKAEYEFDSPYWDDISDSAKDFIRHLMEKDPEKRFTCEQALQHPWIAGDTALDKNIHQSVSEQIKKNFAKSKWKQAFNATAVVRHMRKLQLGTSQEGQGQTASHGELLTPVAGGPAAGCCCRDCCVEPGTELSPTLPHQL
Chain of CHK2 (O96017 whole entry, species assumed): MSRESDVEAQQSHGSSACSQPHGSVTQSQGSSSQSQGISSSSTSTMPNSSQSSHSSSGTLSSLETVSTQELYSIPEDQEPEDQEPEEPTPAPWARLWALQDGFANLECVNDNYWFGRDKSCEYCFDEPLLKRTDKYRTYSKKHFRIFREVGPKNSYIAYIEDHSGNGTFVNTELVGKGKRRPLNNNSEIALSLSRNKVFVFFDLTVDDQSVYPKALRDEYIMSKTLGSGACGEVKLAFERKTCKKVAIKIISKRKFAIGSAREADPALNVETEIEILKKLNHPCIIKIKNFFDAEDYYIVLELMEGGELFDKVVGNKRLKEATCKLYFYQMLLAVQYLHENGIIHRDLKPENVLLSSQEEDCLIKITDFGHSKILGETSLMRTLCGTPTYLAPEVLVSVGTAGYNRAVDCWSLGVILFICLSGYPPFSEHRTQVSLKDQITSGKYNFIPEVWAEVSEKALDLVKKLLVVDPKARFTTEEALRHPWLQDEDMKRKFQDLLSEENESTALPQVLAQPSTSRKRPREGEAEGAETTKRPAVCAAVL

On to `NCCCC[C@H](NC(=O)[C@H](CC(=O)O)NC(=O)[C@H](CC(=O)O)NC(=O)[C@H](CC(=O)O)NC(=O)[C@H](CC(=O)O)NC(=O)[C@H](CC(=O)O)NC(=O)[C@@H](CC(=O)O)NC(=O)CCCCCCCn1cnc2c(Br)c(Br)c(Br)c(Br)c21)C(=O)O` [TBBI-OcA-(D-Asp)-(L-Asp)5-(L-Lys)-OH] (X1-[dD]DDDDDK-OH), for which the remaining activity at 1 µM with CLK2 worked out at 24%; with MAPKAP-K3, 69%; with EIF2AK3 it was 71%; with SIK3 it was 74%; with PDK1, 86%; with PAK6, 86%. For the same compound, the remaining activity at 1 µM amounted to 91% with ROCK 2; 94% with NEK2a; 101% with CHK2; 105% with CAMK1; 106% in the data set with PKCγ; 120% with RIPK2. Further, the remaining activity at 1 µM with p38b MAPK worked out at 122%.
